Assays:
Test in all cases: fluorescence polarization in solution
EGFR-pY978 peptide = target: EGFR-pY978 peptide
MidT-pY324 peptide = target: MidT-pY324 peptide
ShcA-pY239 peptide = target: ShcA-pY239 peptide
[1] = target: fluorescein-GGpYGG peptide (SEQ ID NO: 23)

Substance | Kd (EGFR-pY978 peptide) [nM] | Kd (MidT-pY324 peptide) [nM] | Kd (ShcA-pY239 peptide) [nM] | Kd [1] [nM]
T8V/C10A/K15L variant Src SH2 domain (designed binder) | 1 | 1 | 1 | 510
wild-type Fyn SH2 domain (hexa-histidine-tagged construct, SEQ ID NO:4) |  |  |  | 67000

Reference: patent US20190271705A1
